# Results taken from patent publication US20140127683.
# Like-named read-outs stand apart in the source and are kept apart here.
# Assays:
# [1] = molecular target: T1, mYOX1 (Naegleria gruberi) (UniProt D2W6T1); settings: LC-MS after NaBH4 reduction and T4-BGT, caC 29.3%, ghmC 67.7%, mC 3.0%
# T1 sequence: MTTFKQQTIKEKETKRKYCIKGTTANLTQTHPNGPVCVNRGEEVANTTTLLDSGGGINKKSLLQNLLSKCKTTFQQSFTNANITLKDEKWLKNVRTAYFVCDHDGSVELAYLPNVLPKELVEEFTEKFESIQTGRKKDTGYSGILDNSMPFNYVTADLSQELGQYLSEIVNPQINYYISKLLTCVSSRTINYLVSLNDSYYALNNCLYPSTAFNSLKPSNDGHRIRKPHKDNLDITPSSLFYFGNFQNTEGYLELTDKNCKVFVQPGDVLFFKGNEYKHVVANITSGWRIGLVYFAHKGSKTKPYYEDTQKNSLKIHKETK
# [2] = molecular target: T1, mYOX1 (Naegleria gruberi); settings: LC-MS, 20 uM mYOX1, Bis-TRIS pH 6.0, Fe(II), alpha-ketoglutarate
substance,measurement,setting,value
MG1655 genomic DNA,activity (% 5mC oxidized),[1],97
pTXB1-M.SssI plasmid,activity (% 5mC oxidized),"[2]; caC 91.2%, hmC 1.8%, fC 5.9%, mC 1.0%",99
IMR90 genomic DNA,activity (% 5mC oxidized),"[2]; caC 89.1%, hmC 1.7%, fC 8.7%, mC 0.5%",99.5
